The source of these data is publication PMC6165198.

The target in experiment [1] is fused glucose-6-phosphate dehydrogenase::6-phosphogluconolactonase (G6PD::6PGL) protein from Giardia lamblia (Giardia lamblia).
For experiment [2] the target is unchanged. In words: SEC; Shodex Protein KW-802.5 column, 50 mM Tris buffer pH 8.75, protein incubated 2 h at 37 °C with either 0.45 M or no Gdn-HCl, flow 0.5 mL/min, calibrated with Bio-Rad standards.
Experiment [3] has the same target. The experiment in a line: SEC; Sephacryl 100 (16/60) gel filtration column, 50 mM Tris buffer pH 7.85, flow 0.5 mL/min, calibrated with Bio-Rad gel filtration standards; oligomeric state from the elution volume. On the technique in general: Size exclusion chromatography separates by hydrodynamic size, large species first.

As usually defined, the stoichiometry N is the number of molecules, sites or subunits per partner or assembly. In experiment [1], “fused glucose-6-phosphate dehydrogenase::6-phosphogluconolactonase (G6PD::6PGL) protein from Giardia lamblia (enzyme)” returned a residual G6PD activity after incubation of the enzyme at 0 to 100 µg/mL for 2 h at 37 °C (stability to dilution) of 100%. Also, the stoichiometry N in experiment [2] and in experiment [3] was 2 in each case.
